According to patent publication US6699677B1, “Tethered ligands and methods of use” (ChemoCentryx, Inc., priority 1999, dated 2004):

T1: CCR4 (Homo sapiens, UniProt P51679)
T1 sequence (P51679 1-360): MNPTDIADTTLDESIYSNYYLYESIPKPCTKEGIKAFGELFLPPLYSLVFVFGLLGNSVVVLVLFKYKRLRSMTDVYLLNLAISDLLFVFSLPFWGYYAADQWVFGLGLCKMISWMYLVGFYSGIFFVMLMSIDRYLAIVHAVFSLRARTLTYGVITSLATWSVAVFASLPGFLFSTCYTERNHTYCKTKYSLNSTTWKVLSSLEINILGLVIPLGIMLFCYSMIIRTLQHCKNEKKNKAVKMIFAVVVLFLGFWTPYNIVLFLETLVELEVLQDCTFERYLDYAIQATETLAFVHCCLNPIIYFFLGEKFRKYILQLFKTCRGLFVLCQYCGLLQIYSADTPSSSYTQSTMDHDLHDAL

T2: CCR10 (Homo sapiens, UniProt Q9NPB9)
T2 construct: Full length CCR10 expression constructs were made in pIRESpuro expression vector; expressed in transfected cells; HEK293-CCR10)
T2 sequence (Q9NPB9 1-350): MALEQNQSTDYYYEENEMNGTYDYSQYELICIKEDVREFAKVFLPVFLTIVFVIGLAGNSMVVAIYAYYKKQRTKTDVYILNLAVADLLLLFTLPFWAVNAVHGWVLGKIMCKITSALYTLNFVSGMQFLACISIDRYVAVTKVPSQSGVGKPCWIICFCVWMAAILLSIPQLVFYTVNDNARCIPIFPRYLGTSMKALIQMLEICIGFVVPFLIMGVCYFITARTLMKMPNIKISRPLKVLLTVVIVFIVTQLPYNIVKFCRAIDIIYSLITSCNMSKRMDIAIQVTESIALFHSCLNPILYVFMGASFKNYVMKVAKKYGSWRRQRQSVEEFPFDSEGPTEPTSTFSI

B1: TARC-FRAC: a stalkokine with a fractalkine stalk and an TARC ligand domain (protein)
chain: ARGTNVGRECCLEYFKGAIPLRKLKTWYQTSEDCSRDAIVFVTVQGRAICSDPNNKRVKNAVKYLQSLERSEFGGTFEKQIGEVKPRTTPAAGGMDESVVLEPEATGESSSLEPTPSSQEAQRALGTSPELPTGVTGSSGTRLPPTPKAQDGGPVGTELFRVPPVSTAATWQSSAPHQPGPSLWAEAKTSEAPSTQDPSTQASTASSPAPEENAPSEGQRVWGQGQSPRPENSLEREEMGPVPAHTDAFQDWGPGSMAHVSVVPVSSEGTPSREPVASGSWTPKAEEPIHATMDPQRLGVLITPVPDAQA
modifications: left off: small tags and cut ends
notes: a stalkokine with a fractalkine stalk and an TARC ligand domain
B2: FK: fractalkine, natural membrane protein with a chemokine domain tethered on a long mucin-like stalk (protein)
chain: QHHGVTKCNITCSKMTSKIPVALLIHYQQNQASCGKRAIILETRQHRLFCADPKEQWVKDAMQHLDRQAAALTRNGGTFEKQIGEVKPRTTPAAGGMDESVVLEPEATGESSSLEPTPSSQEAQRALGTSPELPTGVTGSSGTRLPPTPKAQDGGPVGTELFRVPPVSTAATWQSSAPHQPGPSLWAEAKTSEAPSTQDPSTQASTASSPAPEENAPSEGQRVWGQGQSPRPENSLEREEMGPVPAHTDAFQDWGPGSMAHVSVVPVSSEGTPSREPVASGSWTPKAEEPIHATMDPQRLGVLITPVPDAQA
B3: vMIPII: viral chemokine (protein)
chain: GDTLGASWHRPDKCCLGYQKRPLPQVLLSSWYPTSQLCSKPGVIFLTKRGRQVCADKSKDWVKKLMQQLPVTAR
B4: MDC-FRAC: a stalkokine with a fractalkine stalk and an MDC ligand domain (protein)
chain: GPYGANMEDSVCCRDYVRYRLPLRVVKHFYWTSDSCPRPGVVLLTFRDKEICADPRVPWVKMILNKLSQEFGGTFEKQIGEVKPRTTPAAGGMDESVVLEPEATGESSSLEPTPSSQEAQRALGTSPELPTGVTGSSGTRLPPTPKAQDGGPVGTELFRVPPVSTAATWQSSAPHQPGPSLWAEAKTSEAPSTQDPSTQASTASSPAPEENAPSEGQRVWGQGQSPRPENSLEREEMGPVPAHTDAFQDWGPGSMAHVSVVPVSSEGTPSREPVASGSWTPKAEEPIHATMDPQRLGVLITPVPDAQA
modifications: left off: small tags and cut ends
notes: a stalkokine with a fractalkine stalk and an MDC ligand domain
B5: MDC: recombinant human chemokine, natural ligand for CCR4 (protein)
chain: GPYGANMEDSVCCRDYVRYRLPLRVVKHFYWTSDSCPRPGVVLLTFRDKEICADPRVPWVKMILNKLSQ
B6: ELC-SK: tethered ligand fusion protein: ELC chemokine domain, human fractalkine mucin stalk, myc/poly-histidine immobilization domain (protein)
chain: GTNDAEDCCLSVTQKPIPGYIVRNFHYLLIKDGCRVPAVVFTTLRGRQLCAPPDQPWVERIIQRLQRTSAKMKRRSSEFGGTFEKQIGEVKPRTTPAAGGMDESVVLEPEATGESSSLEPTPSSQEAQRALGTSPELPTGVTGSSGTRLPPTPKAQDGGPVGTELFRVPPVSTAATWQSSAPHQPGPSLWAEAKTSEAPSTQDPSTQASTASSPAPEENAPSEGQRVWGQGQSPRPENSLEREEMGPVPAHTDAFQDWGPGSMAHVSVVPVSSEGTPSREPVASGSWTPKAEEPIHATMDPQRLGVLITPVPDAQA
modifications: left off: small tags and cut ends

Assays:
CCR4 [1] = target: T1, CCR4; experiment: Calcium mobilization in INDO-1AM loaded CEM cells expressing CCR4; assay type: cell-based; set-up: endogenous in cells; host or cells: CEM cells; conditions: fusion protein supernatant added at 80 sec
Protocol: Briefly, CEM cells that express CCR4 were placed in a fluorimeter and monitored over time for changes in fluorescence. […] TARC-Fractalkine or MDC-Fractalkine (fusion protein supernatants), or control supernatants, were added at the following times: experiment 1, control supernatant added at 50 sec, TARK-FRAC at 80 sec; experiment 2, control supernatant at 50 sec and MDC-FRAC at 80 sec.

CCR4 [2] = target: T1, CCR4; experiment: Binding of CCR4-NSO cells to immobilized stalkokines and competition by soluble chemokine; set-up: host or cells: mouse myeloma NSO
Protocol: Following, the liquid in each well was aspirated and washed once for approximately 5 minutes with 500 ul of PBS. The wells were then “blocked” (blocked for any additional protein binding sites) with the addition of 250 ul of blocking solution (2% fetal bovine serum, 0.5% BSA in PBS) and incubation for 1 hour at room temp (e.g., 20° C.). […] Each slide contained two wells with control supernatant (from mock-transfected cells) and two wells with the positive control SDF1a (which binds the ubiquitous chemokine receptor CXCR4). The four other wells were for experimental samples. The supernatants were incubated for one hour at room temperature (typically 20° C.), then incubated for an additional hour at 37° C. The supernatants were aspirated off, and each well was washed once for 5 minutes with 500 ul of PBS. The slide was then ready for addition of cells for assay.
Several types of cells were used in binding experiments to stalkokines of the invention, including transfected mouse myeloma NSO cells containing a mammalian expression vector driving expression of the receptor of interest, e.g., CCR1, CCR4, CCR6, CCR7, CCR8, CXCR4, CMV US28 (gift of R&D Systems (Minneapolis, Minn.)).
In an experiment, CCR4-NSO cells were used to test binding competition. Harvested CCR4 NSO cells were resuspended at 2×10^6 cells per ml in PBS. […] 250 ul of cells that were not pre-treated with soluble chemokine were added to additional wells. The slides were incubated for 1.5 hours at room temp, then the supernatant gently aspirated. The chamber portion of the slide was removed (using the apparatus provided by the supplier) and the slide was washed by gentle immersion into a petri dish containing PBS to a depth of 1cm. This was repeated 3 times in total, and the slide was immersed in a 1% glutaraldehyde solution (in PBS) for 5 minutes at room temperature. The cells were inspected and enumerated visually by microscopy.

CCR4 [3] = target: T1, CCR4; experiment: Displacement of radiolabeled MDC or TARC tracer from CEM cells expressing CCR4; assay type: binding; set-up: endogenous in cells; host or cells: CEM cells; conditions: supernatants with soluble stalkokine, compared with control supernatant
Protocol: Briefly, CEM cells we added to radiolabeled chemokine “tracer” (MDC or TARC) in the presence of competitor molecules such as supernatants expressing the soluble MDC-FRAC (a stalkokine with a fractalkine stalk and an MDC ligand domain) or TARC-FRAC (a stalkokine with a fractalkine stalk and an TARC ligand domain). The cells and tracer were incubated and harvested by filtration, capturing the bound tracer. The material was then counted. “Total” is the amount of tracer bound with no competition.

CXCR4 = target: T3, CXCR4 (Homo sapiens, UniProt P61073); experiment: Binding of CXCR4-NSO cells to immobilized stalkokines
T3 construct: host or cells: mouse myeloma NSO
Protocol: In one set of experiments, five 8 well chamber slides (Lab-Tek II, Nalge Nunc International, Rochester, N.Y.), 250 ul of 10 ug/ml anti-his antibody (R&D Systems, Minneapolis, Minn.) in PBS was added to each well and incubated at room temperature overnight (typically 16 hours). Following, the liquid in each well was aspirated and washed once for approximately 5 minutes with 500 ul of PBS. The wells were then “blocked” (blocked for any additional protein binding sites) with the addition of 250 ul of blocking solution (2% fetal bovine serum, 0.5% BSA in PBS) and incubation for 1 hour at room temp (e.g., 20° C.). The liquid in each well was aspirated and 250 ul of supernatant containing the chemokine-stalk-immobilization domain fusion proteins (SDF1a-FRAC, finetaxin-FRAC, CCL27-FRAC, 1309-FRAC, MIP3a-FRAC, ELC-FRAC, SLC-FRAC, MDC-FRAC, TARC-FRAC, or BRAK-FRAC) or the control supernatant was added to two wells. Each slide contained two wells with control supernatant (from mock-transfected cells) and two wells with the positive control SDF1a (which binds the ubiquitous chemokine receptor CXCR4). The four other wells were for experimental samples. The supernatants were incubated for one hour at room temperature (typically 20° C.), then incubated for an additional hour at 37° C. […] The slide was then ready for addition of cells for assay. […]

CCR10 [4] = target: T2, CCR10; experiment: Spectrum of ligands that bind to CCR10; assay type: binding
Text: Furthermore ELC-SK mediated adhesion was abolished in the presence of soluble native ELC as a competitor (FIG. 3A, top row). […] Moreover, radiolabeled ELC was used in a traditional homologous competition assay in the presence of increasing concentrations of unlabeled ELC. […] Taken together, the stalkokine-based adhesion and radiolabeled ligand binding/homologous competition assays indicate that CCR10 is a new chemokine receptor that bound a novel compliment of chemokines.

CCR10 [5] = target: T2, CCR10; experiment: Adhesion of HEK293-CCR10 cells to immobilized stalkokines, with or without soluble chemokine competitors; assay type: binding; conditions: stalkokine immobilized via anti-His anchoring antibody, 500,000 cells, 1.5 hrs at RT
Protocol: To determine ligand binding to CCR10, HEK293-CCR10 cells were used to interrogate chemokine “stalkokines” (SK), i.e., molecules in which discrete chemokine domains were engineered to be tethered to the end of an extended stalk structure. Stalkokines were interrogated using 8-well chamber slides coated first with anti-His anchoring antibody (10 ug/ml in PBS overnight at RT), which were washed and ‘blocked’ (2% FBS/0.5% BSA in PBS); treated with 250 ul of HEK293 cell stalkokine supernatants (1 hr at 37C), and incubated with 500,000 HEK293-CCR10 transfectants (1.5 hrs at RT). Inhibition of adhesion by competition with soluble chemokines was done by incubating cells with 5-10 ug/ml of recombinant chemokines. In all cases, nonadherent cells were removed by washing in PBS; remaining adherent cells were fixed with 1% glutaraldehyde, photoimaged and counted. As a primary screen, this adhesion would reveal putative receptor-ligand interactions.

T3 sequence (P61073 whole entry): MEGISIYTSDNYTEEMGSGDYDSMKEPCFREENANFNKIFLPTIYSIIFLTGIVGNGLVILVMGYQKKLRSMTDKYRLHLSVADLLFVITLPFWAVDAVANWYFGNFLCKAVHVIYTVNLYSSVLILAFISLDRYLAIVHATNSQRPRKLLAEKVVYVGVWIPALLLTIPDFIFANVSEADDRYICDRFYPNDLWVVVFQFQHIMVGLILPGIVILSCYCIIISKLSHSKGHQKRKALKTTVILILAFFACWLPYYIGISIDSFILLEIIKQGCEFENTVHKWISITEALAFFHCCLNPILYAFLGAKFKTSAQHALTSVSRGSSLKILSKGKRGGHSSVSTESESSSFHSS

Molecule | Calcium influx / calcium signaling (CCR4 [1]) | Binding to Stalkokine form (CCR4 [2]) | Inhibition of binding of MDC or TARC tracer to CEM cells (CCR4 [3]) | Binding to Stalkokine form (CXCR4) | further results
B1 | modest influx | bound | significant further decrease |  | Calcium influx / calcium signaling (CCR4 [1]; listed as TARC-Stalkokine): induction of calcium signaling
B2 |  |  |  | yes | 
B3 |  |  |  | yes | Affinity of binding to CCR10 (CCR10 [4]): lower affinity
B4 | modest influx | bound | significant further decrease |  | Calcium influx / calcium signaling (CCR4 [1]; listed as MDC-Stalkokine): induction of calcium signaling
B5 |  | yes, yes | maximal level of competition |  | 
B6 |  |  |  |  | Adhesion of HEK293-CCR10 cells to immobilized stalkokine (CCR10 [5]): adhered very well; Adhesion of HEK293-CCR10 cells to immobilized stalkokine (CCR10 [5]; listed as ELC-stalkokine (SK)): strong adhesion
